Test results as given in paper PMC6009595.

Biological target: H-NS (Salmonella enterica serovar Typhimurium …, UniProt A0A0F6B244 1-137)
Experiment: fluorescence anisotropy

Sequence of H-NS (A0A0F6B244 whole entry): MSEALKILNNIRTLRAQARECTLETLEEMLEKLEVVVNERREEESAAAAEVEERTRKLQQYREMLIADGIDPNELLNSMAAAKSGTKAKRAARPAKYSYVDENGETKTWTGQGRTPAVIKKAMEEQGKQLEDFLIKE

B1: 36 bp pagC high-affinity H-NS site (HAhnsBS) (dsDNA)
DNA 1: ATGGGTTTTATAGCGAAATAGACTTTTTTATCGCGT
DNA 2: ACGCGATAAAAAAGTCTATTTCGCTATAAAACCCAT
- binding result: binds
